# Ends that are not written are not given here.
# T1: IRE1α lumenal domain (IRE1αLD) (human, UniProt O75460 24-443)
# T1 sequence: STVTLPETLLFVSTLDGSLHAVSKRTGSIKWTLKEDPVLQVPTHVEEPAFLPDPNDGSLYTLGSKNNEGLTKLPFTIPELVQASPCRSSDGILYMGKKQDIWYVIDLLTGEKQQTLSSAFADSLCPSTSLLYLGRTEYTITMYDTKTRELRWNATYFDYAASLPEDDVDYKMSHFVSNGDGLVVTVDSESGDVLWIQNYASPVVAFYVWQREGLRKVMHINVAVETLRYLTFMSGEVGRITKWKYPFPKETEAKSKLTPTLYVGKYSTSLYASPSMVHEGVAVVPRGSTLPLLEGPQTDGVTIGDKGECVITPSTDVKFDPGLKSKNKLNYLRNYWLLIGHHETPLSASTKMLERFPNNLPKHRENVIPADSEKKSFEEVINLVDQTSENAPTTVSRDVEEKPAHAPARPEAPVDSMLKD
# Assays:
# [1] = molecular target: T1, IRE1α lumenal domain (IRE1αLD); assay: […]
# [2] = molecular target: T1, IRE1α lumenal domain (IRE1αLD); assay: fluorescence polarisation
# [3] = molecular target: T1, IRE1α lumenal domain (IRE1αLD); assay: […]; remark: listed apart in the source
Binder,binding result [3],other results
YWLLIGHHETPL (not fully specified (N-terminus)) [IRE1α_(Y358-L369) peptide],–,Ki [1]: 220 ± 30 µM; Kd [2]: 190 ± 20 µM
IYGWYRVHF [CTxA1_(I124-F132) peptide],binds,–
IYGWYRVNF [heat-labile enterotoxin (LTx) peptide 124-132],binds,–
IHFYSKWYIR [SARS-CoV2 ORF8 peptide 39-48],binds,–
IYGWYRVHFGVLDEQLHR [CTxA1_(I124-R141) peptide],–,Kd [3]: 44 ± 5 µM

# From doi:10.1101/2023.06.20.545791 (bioRxiv, 2023)
